Measured values from publication doi:10.1101/590430 (bioRxiv, 2019).

Target: P. luminescens TcdA1 (TcA) (P. luminescens, UniProt Q9RN43 1-2516)
Experiment: cryo-EM structure

B1: TcdB2 (TcB), as the TcB part of the TcdB2-TccC3 fusion protein (natural protein)
chain: MQNSQDFSITELSLPKGGGAITGMGEALTPTGPDGMAALSLPLPISAGRGYAPAFTLNYNSGAGNSPFGLGWDCNVMTIRRRTHFGVPHYDETDTFLGPEGEVLVVADQPRDESTLQGINLGATFTVTGYRSRLESHFSRLEYWQPKTTGKTDFWLIYSPDGQVHLLGKSPQARISNPSQTTQTAQWLLEASVSSRGEQIYYQYRAEDDTGCEADEITHHLQATAQRYLHIVYYGNRTASETLPGLDGSAPSQADWLFYLVFDYGERSNNLKTPPAFSTTGSWLCRQDRFSRYEYGFEIRTRRLCRQVLMYHHLQALDSKITEHNGPTLVSRLILNYDESAIASTLVFVRRVGHEQDGNVVTLPPLELAYQDFSPRHHAHWQPMDVLANFNAIQRWQLVDLKGEGLPGLLYQDKGAWWYRSAQRLGEIGSDAVTWEKMQPLSVIPSLQSNASLVDINGDGQLDWVITGPGLRGYHSQRPDGSWTRFTPLNALPVEYTHPRAQLADLMGAGLSDLVLIGPKSVRLYANTRDGFAKGKDVVQSGDITLPVPGADPRKLVAFSDVLGSGQAHLVEVSATKVTCWPNLGRGRFGQPITLPGFSQPATEFNPAQVYLADLDGSGPTDLIYVHTNRLDIFLNKSGNGFAEPVTLRFPEGLRFDHTCQLQMADVQGLGVASLILSVPHMSPHHWRCDLTNMKPWLLNEMNNNMGVHHTLRYRSSSQFWLDEKAAALTTGQTPVCYLPFPIHTLWQTETEDEISGNKLVTTLRYARGAWDGREREFRGFGYVEQTDSHQLAQGNAPERTPPALTKNWYATGLPVIDNALSTEYWRDDQAFAGFSPRFTTWQDNKDVPLTPEDDNSRYWFNRALKGQLLRSELYGLDDSTNKHVPYTVTEFRSQVRRLQHTDSRYPVLWSSVVESRNYHYERIASDPQCSQNITLSSDRFGQPLKQLSVQYPRRQQPAINLYPDTLPDKLLANSYDDQQRQLRLTYQQSSWHHLTNNTVRVLGLPDSTRSDIFTYGAENVPAGGLNLELLSDKNSLIADDKPREYLGQQKTAYTDGQNTTPLQTPTRQALIAFTETTVFNQSTLSAFNGSIPSDKLSTTLEQAGYQQTNYLFPRTGEDKVWVAHHGYTDYGTAAQFWRPQKQSNTQLTGKITLIWDANYCVVVQTRDAAGLTTSAKYDWRFLTPVQLTDINDNQHLITLDALGRPITLRFWGTENGKMTGYSSPEKASFSPPSDVNAAIELKKPLPVAQCQVYAPESWMPVLSQKTFNRLAEQDWQKLYNARIITEDGRICTLAYRRWVQSQKAIPQLISLLNNGPRLPPHSLTLTTDRYDHDPEQQIRQQVVFSDGFGRLLQAAARHEAGMARQRNEDGSLIINVQHTENRWAVTGRTEYDNKGQPIRTYQPYFLNDWRYVSNDSARQEKEAYADTHVYDPIGREIKVITAKGWFRRTLFTPWFTVNEDENDTAAEVKKVKM
- binding result: binds
